Experimental data published in patent US20170281716.

Columns and labels:
biotin-FLF-CMK = biological target: T1, biotin-FLF-CMK
T1 chain: FLF

[1] = biological target: T2, Full-length poly-histidine-tagged human IL-36β
T2 chain: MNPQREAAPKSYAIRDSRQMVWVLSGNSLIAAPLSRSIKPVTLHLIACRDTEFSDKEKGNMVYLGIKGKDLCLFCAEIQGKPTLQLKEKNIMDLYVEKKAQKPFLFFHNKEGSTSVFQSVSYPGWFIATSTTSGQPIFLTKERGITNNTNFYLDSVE

[2] = biological target: T3, DEVD-modified IL-36γ, full length
T3 sequence (Q9NZH8 whole entry, species assumed, looked up): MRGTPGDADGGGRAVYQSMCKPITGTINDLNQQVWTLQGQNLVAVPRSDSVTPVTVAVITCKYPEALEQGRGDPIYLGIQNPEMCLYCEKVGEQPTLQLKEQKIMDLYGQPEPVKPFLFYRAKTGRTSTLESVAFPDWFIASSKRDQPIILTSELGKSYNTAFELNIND

[3] = biological target: T4, DEVD-modified IL-36β, full length unprocessed
T4 sequence (Q9NZH7 whole entry, species assumed, looked up): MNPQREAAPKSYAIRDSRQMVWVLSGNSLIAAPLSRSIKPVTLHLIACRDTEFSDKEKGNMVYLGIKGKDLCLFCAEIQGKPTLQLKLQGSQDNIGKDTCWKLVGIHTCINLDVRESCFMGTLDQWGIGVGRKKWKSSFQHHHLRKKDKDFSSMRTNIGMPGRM

endogenous IL-36γ = biological target: T5, endogenous IL-36γ
T5 chain: T3 sequence (Q9NZH8 whole entry, species assumed, looked up)

B1: Purified Neutrophil-derived Cathepsin G (protein)
chain: IIGGRESRPHSRPYMAYLQIQSPAGQSRCGGFLVREDFVLTAAHCWGSNINVTLGAHNIQRRENTQQHITARRAIRHPQYNQRTIQNDIMLLQLSRRVRRNRNVNPVALPRAQEGLRPGTLCTVAGWGRVSMRRGTDTLREVQLRVQRDRQCLRIFGSYDPRRQICVGDRRERKAAFKGDSGGPLLCNNVAHGIVSYGKSSGVPPEVFTRVSSFLPWIRTTMRS
- depletion of cathepsin G activity from degranulates with streptavidin agarose (FLF-sBzl hydrolysis; IL-36β bioassay) (biotin-FLF-CMK): selective depletion of cathepsin G activity from PMA-treated neutrophil degranulates using biotin-FLF-CMK largely eliminated activation of IL-36b but not of IL-36g

B2: purified cathepsin K (protein)
chain: APDSVDYRKKGYVTPVKNQGQCGSCWAFSSVGALEGQLKKKTGKLLNLSPQNLVDCVSENDGCGGGYMTNAFQYVQKNRGIDSEDAYPYVGQEESCMYNPTGKAAKCRGYREIPEGNEKALKRAVARVGPVSVAIDASLTSFQFYSKGVYYDESCNSDNLNHAVLAVGYGIQKGNKHWIIKNSWGENWGNKGYILMARNKNNACGIANLASFPKM
- cleavage and activation of IL-36β [1]: cathepsin K, a protease predominantly expressed in osteoclasts, can cleave and activate IL-36β (beta) at the same residue as Cathepsin G (NPQR5 EAAP)

B3: Recombinant poly-histidine-tagged caspase-3 (protein)
chain: SGISLDNSYKMDYPEMGLCIIINNKNFHKSTGMTSRSGTDVDAANLRETFRNLKYEVRNKNDLTREEIVELMRDVSKEDHSKRSSFVCVLLSHGEEGIIFGTNGPVDLKKITNFFRGDRCRSLTGKPKLFIIQACRGTELDCGIETDSGVDDDMACHKIPVEADFLYAYSTAPGYYSWRNSKDGSWFIQSLCAMLKQYADKLEFMHILTRVNRKVATEFESFSFDATFHAKKQIPCIVSMLTKELYFYH
- proteolytic processing, immunoblot [2]: DEVD-modified IL-36β (IL-36b^DEVD) and DEVD-modified IL-36γ (IL-36g^DEVD) was readily processed by caspase-3
- proteolytic processing, immunoblot [3]: DEVD-modified IL-36β (IL-36b^DEVD) and DEVD-modified IL-36γ (IL-36g^DEVD) was readily processed by caspase-3

B4: Purified Neutrophil-derived Elastase (protein)
chain: IVGGRRARPHAWPFMVSLQLRGGHFCGATLIAPNFVMSAAHCVANVNVRAVRVVLGAHNLSRREPTRQVFAVQRIFENGYDPVNLLNDIVILQLNGSATINANVQVAQLPAQGRRLGNGVQCLAMGWGLLGRNRGIASVLQELNVTVVTSLCRRSNVCTLVRGRQAGVCFGDSGSPLVCNGLIHGIASFVRGGCASGLYPDAFAPVAQFVNWIDSIIQ
- proteolysis of endogenous IL-36γ from keratinocyte extracts and supernatants, immunoblot (endogenous IL-36γ): IL-36γ incubated with elastase resulted in robust IL-36γ proteolysis both intracellularly as well as extracellularly
- proteolysis of endogenous IL-36γ in psoriatic skin homogenates, immunoblot (endogenous IL-36γ): incubating these psoriatic homogenates with neutrophil elastase resulted in IL-36γ proteolysis
